Measured values as given in FireProtDB (doi:10.1021/bi00116a007).

B1: Aspartate aminotransferase, P00509 (parent)
chain: MFENITAAPADPILGLADLFRADERPGKINLGIGVYKDETGKTPVLTSVKKAEQYLLENETTKNYLGIDGIPEFGRCTQELLFGKGSALINDKRARTAQTPGGTGALRVAADFLAKNTSVKRVWVSNPSWPNHKSVFNSAGLEVREYAYYDAENHTLDFDALINSLNEAQAGDVVLFHGCCHNPTGIDPTLEQWQTLAQLSVEKGWLPLFDFAYQGFARGLEEDAEGLRAFAAMHKELIVASSYSKNFGLYNERVGACTLVAADSETVDRAFSQMKAAIRANYSNPPAHGASVVATILSNDALRAIWEQELTDMRQRIQRMRQLFVNTLQEKGANRDFSFIIKQNGMFSFSGLTKEQVLRLREEFGVYAVASGRVNVAGMTPDNMAPLCEAIVAVL

Variants of: B1
Conditions: Escherichia coli (strain K12); pH 7.5; 25 °C; Urea; DSC; potassium-HEPES 40 mM; reversible: yes; structure 1AMQ; whole UniProt chain shown

Question: With C180S as the variant, how does the “ddG of mutation (higher = less stable)” value read?
Answer: 1.8 kcal/mol

Question: What about the denaturant m value of the same variant?
Answer: 2.38 kcal/mol/M

Question: And the “denaturant midpoint (higher = more stable)” value (from here on “denaturant midpoint”)?
Answer: 3.41 M

Question: What about the unfolding free energy of the same variant?
Answer: 8.12 kcal/mol

Question: With C180A as the variant, how does the “ddG of mutation (higher = less stable)” value read?
Answer: 2.2 kcal/mol

Question: And the denaturant m value?
Answer: 2 kcal/mol/M

Question: And the “denaturant midpoint” value?
Answer: 3.87 M

Question: What about the unfolding free energy of the same variant?
Answer: 7.74 kcal/mol

Question: Which “ddG of mutation (higher = less stable)” value does the source give for C77A C180A C181A C258A C389A here?
Answer: 1 kcal/mol

Question: And the denaturant m value?
Answer: 2.83 kcal/mol/M

Question: And the “denaturant midpoint” value?
Answer: 3.16 M

Question: What about the unfolding free energy of the same variant?
Answer: 8.92 kcal/mol

Question: Which results are given for C258A?
Answer: ddG of mutation (higher = less stable): 2.5 kcal/mol; denaturant m value: 2.14 kcal/mol/M; denaturant midpoint (higher = more stable): 3.51 M; unfolding free energy: 7.5 kcal/mol

Question: Which results are given for C389A?
Answer: ddG of mutation (higher = less stable): -3.2 kcal/mol; denaturant m value: 3.87 kcal/mol/M; denaturant midpoint (higher = more stable): 3.41 M; unfolding free energy: 13.2 kcal/mol

Question: Which results are given for C77A?
Answer: ddG of mutation (higher = less stable): 1.3 kcal/mol; denaturant m value: 2.13 kcal/mol/M; denaturant midpoint (higher = more stable): 4.06 M; unfolding free energy: 8.67 kcal/mol

Question: Which results are given for C181A?
Answer: ddG of mutation (higher = less stable): 1.6 kcal/mol; denaturant m value: 2.35 kcal/mol/M; denaturant midpoint (higher = more stable): 3.53 M; unfolding free energy: 8.32 kcal/mol
